Experiment: soluble on expression in E. coli; label from the status in PepcDB or PDB records

Soluble on expression in E. coli, not soluble:
MGSDKIHHHHHHMKKKSMIVLTSAFVLLSAFSCGGGGKATGTNEQSEKVVVNVPQFDADSAYLYVKNQVDFGPRVPNTKEHVACGNYLAGKLEAFGAKVTNQYADLIAYDGTLLKARNIIGSYKPESKKRIALFAHWDTRPWADNDADEKNHHTPILGANDGASGVGALLEIARLVNQQQPELGIDIIFLDAEDYGTPQFYEGKHKEEAWCLGSQYWSRNPHVQGYNARFGILLDMVGGENSVFLKEGYSEEFAPDINKKVWKAAKKAGYGKTFIDERGDTITDDHLFINRLARIKTIDIIPNDPETGFPPTWHTIHDNMDHIDKNTLKAVGQTVLEVIYNEK
MGSDKIHHHHHHMKKLIAIDLDGTLLNEKSTISEENTESLQRAQEAGMEVVIATGRAYFDVIDLLKPTGMHPWVIGANGATIHDPTGRRLLSIPLEHKQAIEILHWLEGKHFYYEVFSDEAIFTPQNGRELLAIEMDRLVSANPQTDLGTLSQAAAKQFSQTGFSYVSSYRDLLDTEVNIYNILAFSFDDQKLAKGWDRFKQTDNVTLVTSAEHNFELEHPLASKGNALTWLAKHLHIPLEHTVAIGDSMNDYSMITIAGYSIAMGNARAEIKQISHEVTLSNYEHGVSHSIERLLAAKRLGQN
MGSDKIHHHHHHMKKQWNEFVRDRMSEKNLKQEDIAEAIERTQGAVGHWLTGRRSPNFMEVAKMLNATGTDQVILNSDGTIEDIEFIGIPKKGLVKVIGEATMGTDGSVDIEEIHVGYIDIFTTDPKAFCLRVKGSSMEPRIHSGEFVLVEPQSPFSNGDDVFIRTKDGKNMIKILDYQKDGEYRFSSINNDHKPFNLAIDEVELVYYVAGILKKSRFVDLEP
MGSDKIHHHHHHMKKTERINDMLIFLNNKRYFNLKDLMVRYDISKSTALRDIQSLEEIGVPIYSELGRNGSYKIIENSVLSPIYFSVDEMYALYFSILTLNGYKTKPFNIESIALENKFKHVLPDNVRKNIAIMERTLSFEVTNHSNFSPFLKEILQGIFAERVYHLTYLKKDVEKALIAQFIRIESKFGQWYAKIFNFETNNVQIIRCDKILSIVETSNTKPKNLEELLNYLATFHRKPDAIDFIVIVNQRGKDIFDKENYPSMRIQKENEHYIITGYFNKQEVDLSRTIF
MGSDKIHHHHHHMKKTIIISMLLAAGAATYYFTQQTETPKGPRGRPTPNVVVAKAEMQPIRDEVEALGTGKANESITVTPKVTDMVTEINFNDGQMVDKGQLLVRLQDREQIARVTVARVKMKDHERELARISSLVTSQTVAALERDRLQTLIDTAKAELDQAESSLKDRRILAPFSGRLGLRQVSQGSLVTPGTVITTLDDISTIKLDFSVPERFLQSLAIGKSVEASAVAFEGELFTGKVVSVDSRINPTTRAVTVRAEIPNKGMRLLPGMLMKVKLIKQSREALIIPEAAIIPIQKDHFVYLVNDENVVERRQVQLGLRKRGWVEIVGGVDVGEQVMVRGILKVRPGDTVKVQYSEHFSFNQQAKVEPLA
MGSDKIHHHHHHMKKVNYAAIDIGSNAVRLLIKCVNEENAPELMSKVQLIRIPLRLGEDAFTMGVISAEKEKKLIRLMKAYKQLMKIYDVVDYRACATSAMRDARNGKDIARQIARKTGIRVDIIDGQEEAHIVYDNHIEQLFASGQNYLYVDVGGGSTEINLISNGELKNSRSYNIGTVRMLSGMVKEEEKEALRTDLIGLAAEYAPTSIIGSGGNINKLFRLADKKDKKASLLPVESLREIYEALQALPAEQRIKQYKLKPDRADVIVPAAEIFLEVAMNVKATGIIVPTIGLSDGIIDSLYTQKMNTPVAPKVQ
MGSDKIHHHHHHMKLDDCQLLIHVHKAGTMRGAARSLHLSQPAISQRLKQMEDLWGGAIFIRTHKKLLLTPLGEKVLTFAQETLWRTERLREELEQMKGSVSGRLSLGISSVVSHYLIPPLLEKYTKAYPRVNIELISTTSDQIRRTFSSYHVAIFRGDRLPEQASHLLLADPLYLVFDKDIPIEKRPLIQWKSDPSLEALIQAWMRSVTSFTFRGHVSVDQIETCKQLMLRGVGAAILPEMAIKDVSDQCFHKLPLQLDNQPLERQTWVLYEEEALSLPQVEAFLQLLPLK
MGSDKIHHHHHHMKLDLVRFFQACNPSKTLVVSKPEDRQYYIDFSKVRGAKIIEELGRTITRLSPEQPTCQLFTGHIGCGKSTELLRLKAELEQQGFHVVYFESSQSLDMADIDVTDILLAVAREVSQSLEAIKINLKPGYFKNLFTEISEFLQTPLDIGVEAELSVGIAKITAKTKDSPKLRGQLRQYLEPRTNGILESINKELLKPAREKLKQEGKKGLVVIIDNLDRVDNSLKPSGYYQPEYLFVERGEQLNQLNCHVVYTIPLVLIFSNALGRLINRFGIDPKVLPMVPVQVQDGSQFLQGITLLQQMVMARAFPGVSWEQSRHLITEVFDSLDTLERLCRVSGGHLRNLLMLLFRCLQQEDPPLSRECVDRVIKQRRNELTLAITPDEWELLHEVAQEKNLRGHERYDLLLRSMFVFEYRDEDGSWFDINPILAEAKEFRL
MGSDKIHHHHHHMKLGILEKYRRFLPVTDKTPMLSLNEGNTPLIPLVNMSRELGINIYVKYEGSNPTGSFKDRGMVVAVAKALEEGSKAIMCASTGNTSASAAAYAARAGIKAIVLIPEGKIALGKLAQAMIYGAVVLQVRGNFDKCLELVKEITSKYPITLVNSINPYRLEGQKTAAFEIVDELGDAPDYHFIPVGNAGNISAYWMGYKEYYQHGFSTKLPKMMGFQAEGAAPIVRGHPIENPETVATAIRIGNPANWEKAVRARDESGGDIDMVSDEEILRAQRLLAQKEGIFCEPASAASIAGLLKKHRQGIFRGGEIVVCTLTGNGLKDPNIVISQLEPPRIIEGRVEEILEVLDI
MGSDKIHHHHHHMKLGTQNQAFFPENIEEKFAYVKEMGFEGFEIDGKLLVENLDEVKKAIEKTGLPVSTACGGYDGWIGDFIEERRLNGLEEIKAILEALAEVGGQGIVVPAAWGMFTYRLPPMVSPRSQAGDFKAVSESLVYLDKIAGETGTKVYLEPLNRYQDHMINLLSDAQKYIDENELKNVEIIADFYHMNIEEDSIPTVLETYKDSIGHIHVADNHRYQPGSGSLDFKTSFDQLKKNGYNGFLTFECRVRSENPEQAYKDALAHLKSCLI
MGSDKIHHHHHHMKLICEKELCTGCGLCAARCPKHSISLVAEELGHLYPSVDQKKCIDCGLCQKACPSLHDTVCLYPSVAYAAWSKDEEDYRSSTSGGMASVLTHYFLANVGIVYGCTVIPGIEIKHIRIDNLKDAYKLKGSKYVQSSIVDVLSQIRQDVKDGTNVLFIGTPCQVTAVKRMYEEQPDNLFLVDLICHGVPSNKWLVDYIANTLKIKADKVSSIGFRLFEAFSLCVYNDDRLIYKSGDLWTHRYEDLYYNTFIDGFTYRDSCFNCHYAKPERVSDITIGDFWGLGNETDDNYIPKHPYGISCVLPLTEKGKRLISIVKDKLNIYERPVTEAINGNDQLRFPKKKNLRIKFFRRIHKYIGVDAAYKLCVCDKIVKYKIRKIIR
MGSDKIHHHHHHMKLKFLGGAEEVGRLGVKITDKDTSVIVDYGVIPEKPPQYPLPPEPVDAMFITHSHLDHIGAVPVYYHKGEPDLYATQMTLNTMKPLLRDALKVTNIEGYPAMFNEDDINSALANMRPARYFESIEVGNMVATPYPAGHIPGSTMWKFEDGISVTVTGDVNTIDTYLINGAKPIKTDVLIIESTYAGKNHESREDVRKRFRDSVKEVIDSGGKVIMPAFAVGRTQELIMTIADMGYDVAVDGMGNDISTIYLNTPGFLRSKKEFLRALSKVRIIKGRNMRENAIRSDIIISTSGMLDGGPVLGYIQKLLEDEKSAIFVTGYQVEGTNGRSLLETGTLTIAGVTVKPKMRVEFFDMSAHAGHDELVNFIKAIDPKKIVLCHGDHRENLLPDLEGYDVLLPYNGKEYEI
MGSDKIHHHHHHMKMDFKIRIAQQSDSAELRDLYKNTVLVVNRRDYSQDEVEDWASCGDDLSNIEEMIKTHYFIVAVNQLSQIVGFSSITPQGYLHSMFIHADFQGKGIATMLLEEIERYAITKGIIQITSEVSLTARPFFEKQKYVVKKEQKRQANKLNLTNFWMAKTLSVIKPYHGRIPACGVFCGGCPSYTRDEKICQGAEENKTRCEKCRTFYLCCVEKGITHCYQCHLFPCTKFKGFTKRWLKYGQDFIENQKFLKQVGEMEFLRFYNEKVTD
MGSDKIHHHHHHMKMKEFLDLLNESRLTVTLTGAGISTPSGIPDFRGPNGIYKKYSQNVFDIDFFYSHPEEFYRFAKEGIFPMLQAKPNLAHVLLAKLEEKGLIEAVITQNIDRLHQRAGSKKVIELHGNVEEYYCVRCEKKYTVEDVIKKLESSDVPLCDDCNSLIRPNIVFFGENLPQDALREAIGLSSRASLMIVLGSSLVVYPAAELPLITVRSGGKLVIVNLGETPFDDIATLKYNMDVVEFARRVMEEGGIS
MGSDKIHHHHHHMKNLFLFCRAGYEKECAAEIQQRAAEMNVGGFVKTTNNDAYVIYQCFEDDGADTLAKMLPLNSLIFARQMFAASELHSDLPEQDRVGPLVASLLEADVTKCGELRVETPDTNEAKELSAFCRKFTVPLRQGLKKVGVLLDKENGRRPIIHVCFVGPGKAYVGYSLSNNSSPHFMGIPRLRMAADAPSRSSLKLDEAFGAFLTKEEQEMRCRSGLKAVDLGACPGGWTYQLVRRGMMVAAVDNGPMDEKLMETGQVKHYRADGFRFEPPRKNIYWLVCDMVEKPSRVAELMEAWAINGWFKEAIFNLKLPMKSRYKEVRVILDTMGEIFKENEIDYRLQCKHLYHDRDEVTVHLWIFPEKGVSYAEMG
MGSDKIHHHHHHMKNLLSTREVAQFLGVNEKMVYTLISDKGLPATKVTGKWLFPAHLVEQWVENSTINFPRRHESAPPAEGVLLVAGSNDILFERTLRLFMDAQPDYIAAFANMGSMGGIKALRRGVCHMATSHLKQEDGAEYNFAHAERELEERPAVVNFCLREQGLLVPRGNPAGISCVADVAGGGLTVANRPLGTGTRLLFDSELAAAGINPARLKGYENEFSRHMDVGLEVLSGRADTAPAIRAVAGLLGLDFIPLGWERFDLLIPRDTFFERHIQLFMGLFTTPEFAALAGQLEGYDTSRAGRVVFPGETLRETRR
MGSDKIHHHHHHMKNYKFLVPILLVALLGGSVYKTYSDREKINKQYDNDITQARQNRKLEVYVNAEEDYLDALKLKDSAKLRAELGEMYIEAEDLRTAAKWGESLISEYPKEQVGYEFLIQVYLEQKDYASCFRIKDEADGLKISSKKIEEIISDIKYEYYLEGEYAQVEEFSNGYAAVKKEKKWGYLNSKGHRVIESEFEEAGAFAKEVAPVIDDKGRAFYIDNEGNRKIVIDFVDNIEKLGYMSMDNIFPVNDGKKWSLYSLDSKKKIAGDYDEVSAMGNGVAAVKSDDKWSLIDTKGKKVTKDKYDSVVMDSKGIVCRNDRVFAKQNGYYYLFDSKGNKVVKTKFDDARLFADDGYAAVCVDGKWGFVDKDGKQVIKPQFNEAHSFSNGLAAVRFSNGWGYVDEKGNKVIETGFDDACDFNEQGKTFVKTDDKWQVLTLYLYNHES
MGSDKIHHHHHHMKPIQLPLSVRLRDDATFANYYPGANAAALGYVERLCEAEAGWAESLIYLWGHDGVGRSHLLQAACLRFEQFEERTIYLPMADLVQYGPEIFDDLEQCELVCIDDLDVLVGKREWEEGLFHLFNRLRDTGRRLLLAASKSPRELQVKLPDLKSRLTMALIFQLHGLSDEDKLRALQLRASRRGLHLTDEVGRFILNRGSRSMNSLFDLLEQLDRASLQAQRKLTIPFLKETLGW
MGSDKIHHHHHHMKQIKIGTCVPGPVAEEWLKGFVGKGFETFSLNFHMSLEGTDLDKLALSTEQILAGTDSKITTLGYYCNPIQYPEHRKTLEKVICTAEKFGATHVSTFAGAWEGKPVESAYEEFGKVFRELAELAEEKGVKLGIENCLMDGTWEHATCNIGFNPKAWEVMFEEVKNDNFGLEWEPTHQMVQLIDPVTELRKWCKKIVHVHGKDATIDWDAVRHGGISGAVPFVWHRMPGFGDTNWRDIISILRSNGYEDDICIEGYHDPVYRGELEMTGQLHALNYLKWCRGGEFTPTPWEK
